The source of these data is PMC3838859 (Biochemistry, 2013).

Data set [1] deals with Nc1ncnc2c1ncn2[C@@H]1O[C@H](COP(=O)(O)OP(=O)(O)OP(=O)(O)O)[C@@H](O)[C@H]1O. Kind of data set: steady-state kinetics of the nucleosidase reaction. The format is biochemical, Escherichia coli. Conditions: Mg2+.
In data set [2] the target is PhnI (C-P lyase nucleosidase) (Escherichia coli, UniProt P16687). The format is biochemical.

Usually Km stands for the concentration of substrate that gives half-maximal velocity. As a reminder, the Kd is the equilibrium constant for the complex coming apart. Read a high Kd as a looser complex.

Chain of PhnI (C-P lyase nucleosidase) (P16687 whole entry): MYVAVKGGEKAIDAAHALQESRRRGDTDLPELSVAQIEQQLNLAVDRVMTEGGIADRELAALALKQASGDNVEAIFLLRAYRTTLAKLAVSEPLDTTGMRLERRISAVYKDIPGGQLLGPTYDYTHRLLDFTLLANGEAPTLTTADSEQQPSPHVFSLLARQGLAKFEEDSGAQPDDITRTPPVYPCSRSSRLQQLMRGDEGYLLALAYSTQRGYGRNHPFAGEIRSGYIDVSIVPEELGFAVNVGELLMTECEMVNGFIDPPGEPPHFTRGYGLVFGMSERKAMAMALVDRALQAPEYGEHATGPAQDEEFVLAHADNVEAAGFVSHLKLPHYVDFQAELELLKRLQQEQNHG

In the case of “PhnI (C-P lyase nucleosidase) (Escherichia coli K-12)”, in data set [1], the Km was found to be 95 ± 12 µM.

In the case of `Nc1ncnc2c([C@@H]3N[C@H](COP(=O)(O)OP(=O)(O)OP(=O)(O)O)[C@@H](O)[C@H]3O)c[nH]c12` [ImmA-TP, Immucillin-A triphosphate], in data set [2], the Kd is 0.02 ± 0.004 µM.
